Assay results: the nanobody polyreactivity screen of Harvey et al. (2022)

Experiment: yeast display, Sf9 membrane polyspecificity reagent, FACS + sequencing; frameworks hold sequencing errors
Summary of the method: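 A nanobody's polyreactivity label depends on the gate it was sorted from. Yeast display cells were stained with 10% biotinylated, detergent-solubilized Sf9 membrane reagent for 1 hour at 4 °C, enriched on streptavidin microbeads and sorted by FACS. The low and high (top ~1%) gates were set on anti-HA fluorescence for expression and streptavidin fluorescence for reagent binding.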

Row | Sequence | polyreactivity (PSR sort gate)
1 | QVQLQESGGGLVQAGGSLRLSCAASGSISLGRGMGWYRQAPGKREFVVTIAASVNWGTNTNYADSVKGRFTISRDNAKNTLYLQMNSLKPEDTAVYYCAVLPEWETRHDYWGHGTQVTVSS | low polyreactivity
2 | QVQLVESGGGLVQAGGSLRLSFAASGFIIGRNAMGWYRQAPGKEREMVAAITSGGNTYYADSVKGRFTISRDNAKNTVYLQMNSLKPEDTAVYYCAARRRYPLVDAGYYWGQGTQVTVSS | high polyreactivity
3 | QDQLVESGGGLVQAGGSLRLSCAASGLTFDWYTMGWYRQAPGKERELVATINSGGSTDYADSVKGRFTISRDNAKNTVYLQMNSLKPEDTAVYYCNAEYGYSGVGDDYWGQGTQVTVSS | low polyreactivity
4 | QVKLVESGGGLVQAGGSLRLSCAASGSTFLYYGMGWYRQAPGTERELVATITWRGGRTYYADSVKGRFTISRDNAKNTVYLQMNSLKPEDTAVYYCAARVVGSYRKPYPYGLYYWGQGTQVTVSS | high polyreactivity
5 | QVQLVESGGGLVQAGGSLRLSCAASGFTFYPNAMGWYRQAPGNERELVATITGSGGSTNYADSVKGRFTISRDTAKNTVYLHMNRLKPEDTAVYYCAADYAVYSFTEFNYWGQVTQVTVSS | high polyreactivity
6 | QDQLVESGGGLVQAGGSLSLSCAASGSTYDRNAMGWYIQAPGKEREMVAGISFSGGTTYYADSVKGRFTISRDNAKNTVYLQMNRLKPEDTEVYDCAASTYQPGAVPFDYWGQGSQVTVSS | low polyreactivity
7 | QVQLVESGGGVVQAGGSLRLSCAAYGFIYKQNAMGWYRQAPGKERELVATITRGGDTKYADSVKGRFTISRDNAKNTVYLLMNSLKPEDTAVEYCAARYTPSSSIYRFYNFYGYDYWGQGTQVIVSS | high polyreactivity
8 | QVQLVESGGGLVQAGGSLSLSSAASGRPFIRNAMGWSRQAAGKERELVAGINSGGITNYADSVKGRFTISRDNAKNTVYLQMNSLKPVDTAFYYCNARQVLYGLYLRAYPYEYWGQGTQVTVSS | low polyreactivity
9 | QVQLVESGGGLVQAGGSLRLSCAASGSTFYTYTMGWYRQAPGKERELVAAISSRGVSTYYADSVKGRFTISRDNAKNTVYLQMNSLKPEDTAVYYCAVSRIVDFGQKMYYWGQGTQVTVSS | high polyreactivity
10 | QVQLHESGGGLVQAGGSLRLSCAASGTISYAGPMGWYRQAPGKEREFVAGIGVGSNTNYADSVKGRYTIIRDNAKNTVYLQMNSLKPEDTAVYYCAVGGYAPLGRPDWGQGTQVTVRS | low polyreactivity
11 | QVQHVESGGGLVQAGRSLRLICAASGRNSKGYAMAWDRQAPGKERELVAAYADSVKGRFTIARDNAKNTVYLQMNSLKPEDTAVYYCNADYDQVSRVGYVYWAYYYWGQGTQVTVSS | low polyreactivity
12 | QVQVVESGGGLVQAGGSLRLSCAASGRTFFRNAMGWYRQARGKERELVAAISKRGGSTRYADSVKGRFTISRDQAQNPDYLQMNSLKPEDTAVYYCAAASRLEYSHATLYYWGQGTQVTVSS | high polyreactivity
13 | QVQLVESGGGLVQAGGSLRLTCAASGYIIDWNTMVCYRHEPGKERELVAAITESSGSTYYADSVKGRFTISRDNAKNTVYLQMNSLKPEDTAVYYCAAELDVFVSICSRFHFEYWGQGTQVTVSS | low polyreactivity
14 | QVQLVESGGGLVQAGGSLRLSCAASGSIFDTYTMGWYRQAPGKERELVAAITSGTTTTYADSVKGRFTISRDNAKNTVYLQMNSLKPEDTAVYYCAARTSGSFDYCGQGTQVTVSS | low polyreactivity
15 | QVQLLESGGGLVQAGGSLRLSCAASGRSYCNNVMGWYRQEPGKERELVAAITFSGTSTYYADSVKVRFTISRDNAKNTVYLQMNSLKPEDTAVYYCAKYRYADYYSPCYDYWGQGTQVTVSS | low polyreactivity
16 | QVQIVESGGGLVQAGGSLRLSCADSGRTLYRYGMGWYRQAPGKERELVDVIDRGGSTNYADSVKGRFTISRDNAKNTVYLLMNSLKPEDTAVYYCAKRWTAREPWRKGMGYWGQGTQVTVSS | high polyreactivity
17 | QVQLVESGGGLVQAGGRLRLSCAASGRTFNYYAMGWYRQAPGKERELVATISYNGASTYYADSVKGRFTISRDNAKNTVYLQMNSLKPEDTAVYYCAAGYLWRGRLGNWGQGTQVTVSS | high polyreactivity
18 | QVQLVESGGGLVQAGGSLRLSCAASGRIFWSNAMGWYRQAPGKERELVAAITWRGGSTYADSVKGRFTISRDNAKNTVYLQMNSLKPEDTAVYYCAASPSGWRYDYWGQGTQVTVSS | high polyreactivity
19 | QVQLVESGGGLVQAGGSLRLSCAASGRIFVNYAMGWYRQAPGKERELVAAITSSGGSTYYADSVKGRFTISRDNAKNTVYLQMNSLKPEDTAVYYCAARWGRGLEFDYWGQGTQVTVSS | high polyreactivity
20 | QVQRVDSGGGLVQAGGSLRVSCAASGFIFVANAMGGDREAPGKERELVADINRGSTYYADSVKGRFTISRDNAKNTVYLQMNSLKPEDTAVYYCAARHWRRSGIYYYWGQGTQVTVSS | high polyreactivity
21 | QVQLVESGGGLVQAGGSLRLSCAASGRIFLYYAMGWYRQAPGKERDFVAAITYIGGSTYYADSVKGRFTISRDNAKNTVYLQMNSLKPEDTAVYDCATDGYRIDVYHPVYRYDYWGQGTQVTVSS | low polyreactivity
22 | QVQLVESGGGLVQAGGSLRLSCAASGRIFRIYAMGWYIQAPGKERELVARITYSVGSTYYADSVKGRFTISRDNEKNSVFLQMNSLKPEDTSVYYCAADWLGYQYGYWGQGSQVTVSS | low polyreactivity

Row | Sequence | polyreactivity (PSR sort gate)
23 | QVQLVETRGGLVQAGGSLRLSCAASGPIIRYYDMGCYRQAPGTERELVSASNAAGTSTYYADSVKGRFTISRDNAKNTVYLQMNSLKPEDTAVYYCAAQPYYGGGCYCYTRNYKLNYWGQGTQVTVSS | high polyreactivity
24 | QGQLVESGGGLVQAGGSLRLSCAASGSSFPYYAMGWYRQAPGKERELVASINQSDGTTYYADSVKGRFSISRDNAKNTVYLQMNSLKPEDTAVYYCAADTTLQAFIRYSPIGSYDSWGQGTQVTVSS | low polyreactivity
25 | QVQLVESGGGIVLAGGSLRLSCAASGSIYYANAMGWYRQAPGKERELVAVISSGGSTYYADSVNGRFTISRDNAKNTVYLHMNSLKPEDTAVYYCAAETYYYVLPHWYKYKYGYWGQGTQVTVSS | low polyreactivity
26 | QVQLVESGGGLVQAGGSLRLSCAASGFIFYQYAMGWYRQAPGKERELVAAISKSGGNTYYADSVKGRFTISRDNAKNTVYLQMNSLKPEDTAVYYCAADRGQRGMYYWGQGSQVTVSS | high polyreactivity
27 | QVQLVESGGGLVQAGGSLRLSCAASGSIFYSNTMGWYRQAPGKERELVAAISRGGSTYYADSVKGRFTISRDNAKNTVYLQMNSLKPEDTAVYYCAARYRWAPAYDYWGQGTQVTVSS | high polyreactivity
28 | QVQLVESGGGLVQAGGSLRLSCAASGSIFKNYAMGWYRQAPGKERELVASITTGASTNYADSVKGRFTISRDNAKNTVYLQMNSLKPEDTAVYYCAKGGRTFRYFVAPRTFDHGYWGQGTQVTVSS | high polyreactivity
29 | QVQLVESWGGLVQAGGSLRLSCAASGITFSSNAMGWSRQAPGKERELVAAINSGDSTNYADSVKGRFTISRDNAKNTVYLQMNSLKPEDTAVYDCAKRYRRRFNYWGQGTQVTVSS | high polyreactivity
30 | QVQLVESGGGLVQAGGSLRLSCAASGSIFRPYAMGWYRQAPGKEREFVASISWRGGSTYADSVKGRFTISRDNAKNTVYLQMNSLKPEDTAVYYCAAKFWRYRYYEYDYWGQGTQVTVSS | high polyreactivity
31 | QVQLVESGGGLVQAGGSLRLSCASSGSIFSSNTMGWYRQAPGKERELVAAITVSGGRTYYADSVKGRFTISRDNAKNTVYLQMNSLKPEDTAVYFCAARYANTYRTETSYPRYYSWGQGTHVTVSS | high polyreactivity
32 | QVQLVESGGGLVQAGGSLRLSCAASGSTFKRYAMGWYRQAPGKERALVASISSGGSTNYADSVKGRFTISRDNAKNTVYLQMHSLKPEDTAVYYCAVSYRSFRYYWERYYSWGQGTQVTVSS | high polyreactivity
33 | QVQLVESGGGLVQAGGSLRLSCAASGSIFFAYAMGRYRQAPGKERELVAAITSGVSTNYADSVKGRFTISRDNAKNTVYLQMNILKPEDTAVYFCNADFDYGFDAGVAVQVVINVYWGQGTEVTVSS | low polyreactivity
34 | QVQLVESGGGLVQAGGSLRLSCAASGSIFQIVYAMGWYRQAPGKERELVAAISRGGSTYYADSVKGRFTISRDNAKNTVYLQMNSLKPEDTAVYYCAADIVELSPRGVYHFDYWGQGTQVTVSS | high polyreactivity
35 | QVQLVESGGGLVQAGGSLRLSCAASGSIFDGYAMGWYRQAPGKERELVAAISSSGVTTYYADSVKGRFTISRDNAKNTVYLQMNSLKPEDTAVYYCATYSYTWLNYYWGQGTQVTVSS | high polyreactivity
36 | QVQLVESGGGLVQAGGSLRLSSADSGRTFRYYSMGWYRQAPGKERELVAAISSSGASTYYADSVKGRFTISRDYAKNTVYLQMNSLKPEDTAVYYCRSGILFYSRYDYWGQGTQVTVSS | low polyreactivity
37 | QVQLVESGGGLVQAGGSLRLSCASSGSIFEGYVMGWYRQAPGKERELVAAITTGGGSTYYADSVKGRFTISRDNAKNTVYLQMTSLKPEDTAVYYCAKDYWFGYEYWGQGTQVTVSS | low polyreactivity
38 | QVQLVESGGGLVQAGGSLRLSCAASGRIFGDNTMGWYRQAPGKERELVAAISFTGGSTYYADSVKGRFSISRDNAKNTVYLQMNSLKPEDTAVYYCNADWVSTWGYDYWGQGTQVTVSS | low polyreactivity
39 | QDQLGESGGGLLQAGGSLRLSCAASGRTFRYYAMGSYRQEPGKERELVAAISISGGNTYYADSVKGRFTISRDHAKNTVYLQMNSLKPEDTAVYYCAASFSSRFYRARVDYWGQGTQVTVSS | high polyreactivity
40 | QVQLVESGGGLVQAGGSLRLSCAASGSTFFYNAMGWYRQAPGKERELVAAMSLSGGSITYYADSVKGRFTISRDNANNTVYLQMNSLKPEDTAVYYCAADSQATSYGLDYWGQGTQVTVSS | low polyreactivity
41 | QVQLVESGGGLVQAGGSLRLSGAASGRTFVYYAMGWYRQAPGKEREFVAAISRSGGRTSYADSVKGRFTISRDNAKNTVYLQMNSLKPEDTAVYDCAKRPQFFWSHPYDYWGQGTLVTVSS | high polyreactivity
42 | QVQLVESGGGLVQAGGSLRISCAASGSTFLYNNMGWYRQAPGKERELVAAITWSGGNTYYADSVKGRFTISRDNAKNTVYLQMNSLKPEDTAVYYCNAVWYPPKRKCFDYWGQGTQVTVSS | low polyreactivity
43 | QVQLVESGGGLVQAGGSLRLSCAASGSTLPPNAMGWSRQAPGKERELVAAISYSGDSTHYADSVKGRFTISRDNAKNTVYLQMNSLKPEDTAVYYCYASSPGAVPVYDYDYWGQGTQVTVSS | low polyreactivity
